# In PMC8269962 (Nature, 2021):
# Target: H3-I53_dn5B trimer (H3 HA ectodomain fused to the N terminus of I53_dn5B) (influenza A virus (H3N2))
# Test: SEC
substance,measurement,value
H3-I53_dn5B trimer (H3 HA ectodomain fused to the N terminus of I53_dn5B),stoichiometry N,3
